Patent publication US6713604 (TEXAS BIOTECHNOLOGY, dated 2004)
Bridges are numbered along the chain shown (N, C = ends). Where no end group is shown, it is not given here. [ ]: non-standard residue; d: D form.

B1: SEQ ID NO 39 (peptide)
peptide: [dC]SWLDV[dC]-OH
modifications: disulfide 1-7; N-terminus assumed
SMILES: CC(C)C[C@@H]1NC(=O)[C@H](Cc2c[nH]c3ccccc23)NC(=O)[C@H](CO)NC(=O)[C@H](N)CSSC[C@H](C(=O)O)NC(=O)[C@H](C(C)C)NC(=O)[C@H](CC(=O)O)NC1=O
B2: fusion protein of the two N-terminal domains of human VCAM with the hinge, CH2 and CH3 regions of mouse IgG2A (Fc fusion, UniProt P19320 25-220, looked up)
chain: FKIETTPESRYLAQIGDSVSLTCSTTGCESPFFSWRTQIDSPLNGKVTNEGTTSTLTMNPVSFGNEHSYLCTATCESRKLEKGIQVEIYSFPKDPEIHLSGPLEAGKPITVKCSVADVYPFDRLEIDLLKGDHLMKSQEFLEDADRKSLETKSLEVTFTPVIEDIGKVLVCRAKLHIDEMDSVPTVRQAVKELQVY
notes: domain: two N-terminal domains; Secreted from transfected COS cells and captured on Dynal magnetic beads coated with goat anti-mouse IgG; also called VCAM-1; purified VCAM; not shown: mouse IgG2A hinge, CH2 and CH3 regions, amplified from cDNA of the hybridoma cell line 402C10
B3: SEQ ID NO 9 (peptide)
peptide: SWLDVC-OH
modifications: thioether (positions not given here); not fully specified (N-terminus, bridges); printed as CH2CO-Ser-Trp-Leu-Asp-Val-Cys-acid; also: sulfide, sulfoxide or sulfone not given here
notes: also called CH2CO-Ser-Trp-Leu-Asp-Val-Cys-acid
B4: SEQ ID NO 10 (peptide)
peptide: {CH2CO}-EWLDVC-OH
modifications: thioether N-6; also: sulfide, sulfoxide or sulfone not given here
notes: also called CH2CO-Glu-Trp-Leu-Asp-Val-Cys-acid
B5: SEQ ID NO 4 (peptide)
peptide: EWLDV
modifications: cyclic: lactam formed by condensation of the N and C terminus
notes: Head-to-tail cyclic lactam; also called Glu-Trp-Leu-Asp-Val
B6: SEQ ID NO 5 (peptide)
peptide: EWLDD
modifications: cyclic: lactam formed by condensation of the N and C terminus
notes: Head-to-tail cyclic lactam; also called Glu-Trp-Leu-Asp-Asp
B7: SEQ ID NO 7 (peptide)
peptide: GPEFLDV
modifications: cyclic: lactam formed by condensation of the N and C terminus
notes: Head-to-tail cyclic lactam; also called Gly-Pro-Glu-Phe-Leu-Asp-Val

Experiments:
integrin α4β1 (human) = integrin α4β1 (human) (UniProt P13612); assay: inhibition of HL-60 cell (α4β1) binding to VCAM-IgG coated beads, fluorimetry
Chain of integrin α4β1 (human) (P13612 34-1032, chain 1 of 2): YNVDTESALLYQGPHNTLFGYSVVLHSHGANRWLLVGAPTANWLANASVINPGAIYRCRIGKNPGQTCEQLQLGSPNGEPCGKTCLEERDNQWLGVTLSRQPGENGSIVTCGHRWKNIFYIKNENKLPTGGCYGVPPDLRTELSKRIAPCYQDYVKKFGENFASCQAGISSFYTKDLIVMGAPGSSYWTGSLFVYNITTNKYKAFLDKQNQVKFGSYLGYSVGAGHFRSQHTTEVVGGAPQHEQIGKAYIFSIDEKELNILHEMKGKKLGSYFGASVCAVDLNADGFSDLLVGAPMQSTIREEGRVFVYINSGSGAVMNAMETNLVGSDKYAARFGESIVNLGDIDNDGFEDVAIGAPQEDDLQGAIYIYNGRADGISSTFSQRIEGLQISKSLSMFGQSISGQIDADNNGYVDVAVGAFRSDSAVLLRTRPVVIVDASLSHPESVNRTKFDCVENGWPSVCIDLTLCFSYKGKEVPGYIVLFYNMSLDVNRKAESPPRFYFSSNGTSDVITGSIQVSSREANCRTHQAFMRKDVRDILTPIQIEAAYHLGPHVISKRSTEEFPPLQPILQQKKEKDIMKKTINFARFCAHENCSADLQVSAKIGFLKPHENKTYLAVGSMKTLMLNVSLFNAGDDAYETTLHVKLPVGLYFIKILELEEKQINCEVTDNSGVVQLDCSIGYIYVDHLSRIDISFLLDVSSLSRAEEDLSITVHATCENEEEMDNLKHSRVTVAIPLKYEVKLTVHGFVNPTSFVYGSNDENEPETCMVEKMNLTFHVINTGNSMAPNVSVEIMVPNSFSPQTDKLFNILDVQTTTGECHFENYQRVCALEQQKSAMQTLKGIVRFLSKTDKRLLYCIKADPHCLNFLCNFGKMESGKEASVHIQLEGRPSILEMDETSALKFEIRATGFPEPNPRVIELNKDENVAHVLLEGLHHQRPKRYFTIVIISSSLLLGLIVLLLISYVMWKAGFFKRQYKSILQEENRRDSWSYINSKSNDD
Chain of integrin α4β1 (human) (P05556 21-798, chain 2 of 2, further chain): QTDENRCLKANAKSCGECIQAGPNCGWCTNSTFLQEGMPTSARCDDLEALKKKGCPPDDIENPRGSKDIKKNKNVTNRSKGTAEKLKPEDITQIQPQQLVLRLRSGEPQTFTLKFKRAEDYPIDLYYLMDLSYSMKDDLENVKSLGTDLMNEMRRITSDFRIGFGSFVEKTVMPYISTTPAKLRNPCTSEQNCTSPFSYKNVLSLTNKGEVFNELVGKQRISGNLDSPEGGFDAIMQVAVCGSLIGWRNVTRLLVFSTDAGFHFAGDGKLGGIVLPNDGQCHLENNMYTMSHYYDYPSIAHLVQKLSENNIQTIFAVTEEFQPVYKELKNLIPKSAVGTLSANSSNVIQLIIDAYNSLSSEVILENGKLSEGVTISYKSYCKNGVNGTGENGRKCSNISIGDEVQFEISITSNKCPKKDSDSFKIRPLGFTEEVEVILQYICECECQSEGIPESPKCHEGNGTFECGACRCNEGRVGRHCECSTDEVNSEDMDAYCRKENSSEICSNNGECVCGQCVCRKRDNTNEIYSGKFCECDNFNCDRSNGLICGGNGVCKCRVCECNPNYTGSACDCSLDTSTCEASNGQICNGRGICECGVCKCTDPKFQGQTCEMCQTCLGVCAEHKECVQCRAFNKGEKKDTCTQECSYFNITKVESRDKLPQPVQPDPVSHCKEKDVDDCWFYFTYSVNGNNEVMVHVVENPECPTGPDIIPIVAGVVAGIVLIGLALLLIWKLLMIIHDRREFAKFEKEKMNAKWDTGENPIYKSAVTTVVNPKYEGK

integrin α4β1 [1] = molecular target: T1, integrin α4β1 (human, UniProt P13612 34-1032; P05556 21-798); assay: VCAM-IgG fusion on goat anti-mouse IgG magnetic beads; binding of Ramos and HL-60 cells
T1 construct: whole, on cells; also called VLA-4; very late antigen-4
T1 sequence (P13612 34-1032, chain 1 of 2): as the sequence (P13612 34-1032, chain 1 of 2) above
T1 sequence (P05556 21-798, chain 2 of 2): as the sequence (P05556 21-798, chain 2 of 2, further chain) above
From the text: (§1) The media was collected and active protein was purified by immunoprecipitation using Dynal magnetic polystyrene beads coated with goat anti-mouse IgG. Following immunoprecipitation, the beads bound cells that expressed the integrin α_4β_1 such as Ramos and HL-60.

integrin α4β1 [2] = molecular target: T1, integrin α4β1; assay: inhibition of HL-60 cell (α4β1) binding to VCAM-IgG coated beads, fluorimetry
Description: as §1
HL-60 cells were fluorescently labeled with Calcein AM C-3099 (Molecular Probes) and resuspended in 1 ml of binding buffer (Hank's balanced salt solution, pH 7.4, 1.0 mM CaCl_2, 1.0 mM MgCl_2). The beads (10 µl, 4×10^6 beads/ml) were placed in wells of a 96-well microtiter dish with 10 µl of peptide at various concentrations. The beads were incubated with 10 µl of labeled cells (10^7 cells/ml) for 10 min at room temperature. Following immobilization of the beads onto the plastic with a magnet, unbound cells were removed by washing three times with binding buffer. The remaining bound cells were lysed in 50 mM Tris, pH 7.4, 5.0 mM EDTA, 1.0% NP-40 and quantitated by fluorimetry using a Millipore Cytofluor 2350 fluorimeter. Dose response curves were calculated and IC$50$ values determined. Alternatively, the percent adhesion was determined at a single peptide concentration for comparison among peptides.

| Binder | peptide concentration that significantly inhibits binding (integrin α4β1 [2]) [µM] | further results |
| --- | --- | --- |
| B1 | – | peptide concentration that significantly inhibits binding (integrin α4β1 (human)): < 10 µM |
| B2 | – | binding result (integrin α4β1 [1]): binds |
| B3 | < 10 | – |
| B4 | < 10 | – |
| B5 | < 10 | – |
| B6 | < 10 | – |
| EWLDVPEWLDV (cyclic: lactam formed by condensation of the N and C terminus, Head-to-tail cyclic lactam) [SEQ ID NO 6] | < 10 | – |
| B7 | < 10 | – |
